Each block holds one compound with its values, some of them ahead of it.
Assays:
[1] = biological target: T1, LreCysK (cysteine synthase A from Limosilactobacillus reuteri LR1, His-tag at N-terminus) (Limosilactobacillus reuteri, UniProt A0ABF7PP24); test: differential scanning calorimetry, with versus without added PLP; format: binding; conditions: 1.0 mM PLP, 0.1 M Na-phosphate pH 7.0, 1 °C/min; two calorimetric domains, domain 1 given
T1 construct: gene cysK
T1 sequence (A0ABF7PP24 2-307): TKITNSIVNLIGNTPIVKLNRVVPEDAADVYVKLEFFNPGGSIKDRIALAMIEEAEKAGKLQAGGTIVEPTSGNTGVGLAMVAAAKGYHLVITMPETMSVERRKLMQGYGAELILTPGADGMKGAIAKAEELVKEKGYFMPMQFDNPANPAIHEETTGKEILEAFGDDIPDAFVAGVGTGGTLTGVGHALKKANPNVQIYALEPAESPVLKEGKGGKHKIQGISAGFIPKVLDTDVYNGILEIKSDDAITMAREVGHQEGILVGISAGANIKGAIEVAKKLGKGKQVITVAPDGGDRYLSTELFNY
Text: differential scanning calorimetry, with versus without added PLP on LreCysK (cysteine synthase A from Limosilactobacillus reuteri LR1, His-tag at N-terminus)

[2] = biological target: Cysteine synthase A (CysK) from Limosilactobacillus reuteri LR1 with His-tag on the N-terminus (Limosilactobacillus reuteri LR1); test: SEC; analytical gel filtration, HiLoad 16/600 Superdex 200 pg, 1 mg of sample, calibrated with Gel Filtration Calibration Kit HMW; monomer to dimer
CC(=O)OC[C@H](N)C(=O)O = test: purified protein; conditions: saturating sulfide, 5 µM PLP, 10 mM HEPES pH 7.5
Text: HILIC HPLC determination of cysteine, nonlinear regression on LreCysK (cysteine synthase A from Limosilactobacillus reuteri LR1, His-tag at N-terminus)

Compound: Cc1ncc(COP(=O)(O)O)c(C=O)c1O [Pyridoxal-5 phosphate]
Tm, °C [1]: 80.1 °C

stoichiometry N [2]: 2
Compound: Cysteine synthase A (CysK) from Limosilactobacillus reuteri LR1 with His-tag on the N-terminus (enzyme)

Compound: LreCysK (cysteine synthase A from Limosilactobacillus reuteri LR1, His-tag at N-terminus) (Limosilactobacillus reuteri)
Km (CC(=O)OC[C@H](N)C(=O)O): 3.8 ± 0.6 mM
kcat (CC(=O)OC[C@H](N)C(=O)O): 681 ± 45 s⁻¹
kcat/Km (CC(=O)OC[C@H](N)C(=O)O): 179000 M⁻¹ s⁻¹

— PMC12785664, “Structure-Functional Examination of Cysteine Synthase A (CysK) from Limosilactobacillus reuteri LR1” (International Journal of Molecular Sciences, 2025)
